Two molecules from patent US20240116985A1 (published 2024) can be followed below.

Holding throughout (assay): cell-based or functional assay
The target in experiment [1] is T1, beta-catenin in DLD1 TCF/LEF luciferase reporter cells (UniProt P35222 1-781).
T1 sequence (looked up): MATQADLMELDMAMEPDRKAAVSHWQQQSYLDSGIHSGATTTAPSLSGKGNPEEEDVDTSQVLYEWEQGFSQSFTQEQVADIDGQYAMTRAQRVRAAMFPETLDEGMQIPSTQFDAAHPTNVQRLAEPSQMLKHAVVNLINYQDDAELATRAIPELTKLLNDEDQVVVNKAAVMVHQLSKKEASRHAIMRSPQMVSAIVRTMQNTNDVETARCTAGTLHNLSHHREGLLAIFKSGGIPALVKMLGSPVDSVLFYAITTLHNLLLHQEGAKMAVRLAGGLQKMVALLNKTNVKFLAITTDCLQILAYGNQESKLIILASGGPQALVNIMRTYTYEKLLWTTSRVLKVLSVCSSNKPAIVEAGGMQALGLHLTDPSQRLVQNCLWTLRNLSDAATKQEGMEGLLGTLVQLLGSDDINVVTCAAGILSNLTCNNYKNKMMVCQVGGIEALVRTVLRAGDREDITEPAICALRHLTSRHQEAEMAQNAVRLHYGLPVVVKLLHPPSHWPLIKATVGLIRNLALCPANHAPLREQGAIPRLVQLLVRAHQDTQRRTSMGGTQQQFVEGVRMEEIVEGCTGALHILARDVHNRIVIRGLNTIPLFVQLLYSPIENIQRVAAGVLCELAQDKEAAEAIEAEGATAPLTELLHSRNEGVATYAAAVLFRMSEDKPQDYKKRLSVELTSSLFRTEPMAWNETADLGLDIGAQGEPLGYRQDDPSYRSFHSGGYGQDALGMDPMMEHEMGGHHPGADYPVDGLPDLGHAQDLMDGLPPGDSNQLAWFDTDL

In the next experiment the target is T2, B-cat-Halo (UniProt P35222 1-781).
T2 sequence (looked up): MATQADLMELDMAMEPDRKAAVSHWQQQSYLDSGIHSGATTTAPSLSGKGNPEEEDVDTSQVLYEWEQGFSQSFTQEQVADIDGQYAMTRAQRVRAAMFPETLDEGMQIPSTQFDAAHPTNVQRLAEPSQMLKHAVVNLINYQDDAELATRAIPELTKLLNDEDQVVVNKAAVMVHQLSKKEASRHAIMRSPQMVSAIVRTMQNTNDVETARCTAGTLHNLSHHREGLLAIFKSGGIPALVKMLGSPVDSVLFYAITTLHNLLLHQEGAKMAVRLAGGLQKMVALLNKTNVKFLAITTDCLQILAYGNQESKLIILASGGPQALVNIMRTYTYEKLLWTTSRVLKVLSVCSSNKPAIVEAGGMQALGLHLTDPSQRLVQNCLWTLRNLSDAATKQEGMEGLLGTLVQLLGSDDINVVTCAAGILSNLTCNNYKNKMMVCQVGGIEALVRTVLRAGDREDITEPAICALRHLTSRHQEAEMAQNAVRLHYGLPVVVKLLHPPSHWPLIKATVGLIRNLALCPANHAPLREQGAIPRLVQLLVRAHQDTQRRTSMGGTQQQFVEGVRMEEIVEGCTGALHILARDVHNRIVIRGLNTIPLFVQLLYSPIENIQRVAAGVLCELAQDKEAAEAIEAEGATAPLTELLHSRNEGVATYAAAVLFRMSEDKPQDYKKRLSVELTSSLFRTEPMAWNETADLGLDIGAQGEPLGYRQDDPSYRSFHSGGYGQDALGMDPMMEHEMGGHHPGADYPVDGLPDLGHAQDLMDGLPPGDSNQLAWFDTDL

The target of experiment [2] is T3, beta-catenin in DLD1 TCF/LEF luciferase reporter cells (UniProt P35222 1-781).
T3 sequence (looked up): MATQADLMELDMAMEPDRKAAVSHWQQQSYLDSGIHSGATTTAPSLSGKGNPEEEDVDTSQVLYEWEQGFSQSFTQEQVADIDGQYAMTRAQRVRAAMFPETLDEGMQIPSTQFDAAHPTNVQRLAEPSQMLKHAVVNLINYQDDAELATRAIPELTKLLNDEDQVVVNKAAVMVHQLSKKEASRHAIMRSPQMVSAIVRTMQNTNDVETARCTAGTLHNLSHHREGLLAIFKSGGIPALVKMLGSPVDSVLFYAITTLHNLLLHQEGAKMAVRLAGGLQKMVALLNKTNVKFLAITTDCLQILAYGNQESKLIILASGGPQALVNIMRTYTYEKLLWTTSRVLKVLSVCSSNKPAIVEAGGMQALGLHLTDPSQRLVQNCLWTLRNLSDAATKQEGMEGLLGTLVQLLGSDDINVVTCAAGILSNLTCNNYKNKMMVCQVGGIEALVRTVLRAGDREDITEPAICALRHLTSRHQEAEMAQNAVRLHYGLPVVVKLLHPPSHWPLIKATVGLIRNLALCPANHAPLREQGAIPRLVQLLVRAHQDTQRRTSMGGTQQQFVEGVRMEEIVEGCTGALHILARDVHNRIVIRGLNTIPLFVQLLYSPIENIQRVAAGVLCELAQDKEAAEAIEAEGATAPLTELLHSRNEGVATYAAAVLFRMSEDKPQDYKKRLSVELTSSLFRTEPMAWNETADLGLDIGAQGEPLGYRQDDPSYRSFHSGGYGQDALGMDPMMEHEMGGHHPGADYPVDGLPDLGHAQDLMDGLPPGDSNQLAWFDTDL
The source holds these as a separate data set.

Experiment [3] addresses T4, B-cat-Halo (beta-catenin HaloTag NanoBRET construct expressed in HEK293 cells) (UniProt P35222 1-781).
T4 sequence (looked up): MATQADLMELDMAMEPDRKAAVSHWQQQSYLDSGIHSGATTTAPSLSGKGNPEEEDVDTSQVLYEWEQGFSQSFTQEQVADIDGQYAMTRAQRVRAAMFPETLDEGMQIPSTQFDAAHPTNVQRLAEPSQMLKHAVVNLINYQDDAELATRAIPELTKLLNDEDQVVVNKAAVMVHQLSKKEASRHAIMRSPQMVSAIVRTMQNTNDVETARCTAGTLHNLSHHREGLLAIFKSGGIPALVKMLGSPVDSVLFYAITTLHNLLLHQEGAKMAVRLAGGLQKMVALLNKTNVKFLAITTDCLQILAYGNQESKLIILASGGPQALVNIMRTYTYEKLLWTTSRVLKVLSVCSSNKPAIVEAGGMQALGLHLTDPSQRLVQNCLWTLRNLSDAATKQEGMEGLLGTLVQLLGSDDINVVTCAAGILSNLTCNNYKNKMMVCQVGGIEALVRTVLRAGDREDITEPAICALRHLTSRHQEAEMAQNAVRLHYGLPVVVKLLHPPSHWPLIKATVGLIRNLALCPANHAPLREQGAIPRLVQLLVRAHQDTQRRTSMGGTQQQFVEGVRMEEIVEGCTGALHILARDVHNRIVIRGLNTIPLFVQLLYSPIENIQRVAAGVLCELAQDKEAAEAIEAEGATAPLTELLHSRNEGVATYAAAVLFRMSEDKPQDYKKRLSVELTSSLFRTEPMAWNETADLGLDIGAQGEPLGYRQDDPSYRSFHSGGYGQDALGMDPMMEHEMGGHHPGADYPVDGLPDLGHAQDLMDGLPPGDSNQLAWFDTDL

Starred links: 1 amine or outer side, 2 acyl side, 3 side chain; linkers in the order of their positions; H or OH if unused. Positions of bridges follow the written chain, without caps; N, C: chain ends. Non-standard residues stand in square brackets, D forms with d. Primed or numbered codes have the meaning given here. PyrS2″ = (S)-3-amino-1-((pent-4-en-1-yloxy)carbonyl)pyrrolidine-3-carboxylic acid (stapling residue), C=CCCCOC(=O)N1CC[C@@](N[*:1])(C(=O)[*:2])C1; B5(4) = 2,2-bis(4-pentenyl)glycine = 2-amino-2-(pent-4-en-1-yl)hept-6-enoic acid (stitching residue), C=CCCCC(CCCC=C)(N[*:1])C(=O)[*:2]; TfeGA = (S)-2-amino-3-((carboxymethyl)(2,2,2-trifluoroethyl)amino)propanoic acid, O=C([C@H](CN(CC(=O)[*:3])CC(F)(F)F)N[*:1])[*:2]; B5(3) = 2,2-bis(4-pentenyl)glycine (stitching residue), C=CCCCC(CCCC=C)(N[*:1])C(=O)[*:2]; Phe(2-Cl) = N[C@@H](Cc1ccccc1Cl)C(=O)O; Bta = N[C@@H](Cc1csc2ccccc12)C(=O)O; αAllylPro = C=CC[C@@]1(C(=O)O)CCCN1; tBuAla = CC(C)(C)C[C@H](N)C(=O)O; S8 = C=CCCCCCC[C@](C)(N)C(=O)O; hSer = N[C@@H](CCO)C(=O)O

On to Ac-[αAllylPro]D[tBuAla][B5(3)]D[TfeGA]AAF[hSer][S8][Phe(2-Cl)][Bta][hSer]-NH2 (staple 1-4, 4-11) [I-1000], for which the “DLD1 4% Abs IC50” value in experiment [1] was 1.9 µM. In addition, the “NanoBRET Abs IC50” value with B-cat-Halo was found to be 23.9 µM.

For the molecule Ac-[αAllylPro]D[tBuAla][B5(4)]DDAAFN[PyrS2″][Phe(2-Cl)][Bta]Q-NHEt (staple 1-4, 4-11) [I-1079], the “DLD1 reporter assay Abs IC50” value in experiment [2] amounted to 14.5 µM. In addition, the “NanoBRET Abs IC50” value in experiment [3] came out at 19.7 µM.
